Series [1] deals with pro-TEVcs-BDNF (HA-pro-TEVcs-BDNF-Flag-SEP), P23560.
For a further series, the system named is CFP-TEVcs-YFP. The series is described as follows: Cleavage of CFP-TEVcs-YFP substrate in the cytosol of transfected HEK293T cells (Western blot). Type of series: cell-based. An excerpt:
Enzymatic Activity of Unica-TEV in Vital Cells • 13) Use CFP-TEVcs-YFP synthetic recombinant protein as substrate;
This artificial construct has two fluorophores conjugated by the cleavage sequence recognized by TEV (TEVcs). AntiGFP (Biolegend) antibody was used to verify cleavage of CFP-TEVcs-YFP by unica-TEV.
In order to do it, HEK293T cells were transfected (PEI MAX—Polysciences, Inc.) with the plasmids codifying constitutively active wild-type TEV (pcDNA-TEV), and engineered TEV with UniRapR (pcDNA-unica-TEV) and left to grow for 24-48 h at 37° C., 5% CO2.
For both of them, CFP-TEVcs-YFP was co-transfected.
After 24h the cells were treated for 1-3 h with rapamycin (1 μM) or DMSO as control. The cells were washed with cold PBS and lysed with lysis buffer containing rapamycin (1 μM) or DMSO. 10% of the volume of samples was prepared (addition of 2× Laemmli protein sample buffer+boiling for 5 min) for the electrophoretic analysis on gel of SDS-polyacrylamide.

For a further series, the system named is pro-TEVcs-BDNF. The series is described as follows: In vitro protease test after immunoprecipitation of pro-TEVcs-BDNF and unica-TEV. Type of series: biochemical. The conditions noted are these: in presence of rapamycin; SDS-PAGE.
For series [2] the following is noted: mutations I138T, S153N and T180A; relative to wild-type TEV; cited from earlier work.
Series [3] deals with pro-TEVcs-BDNF human recombinant. Nature of the series: Cleavage/maturation of pro-TEVcs-BDNF in transfected HEK293T cells (Western blot). Type of series: cell-based.
In a further series the test system is TrkB. Nature of the series: ERK phosphorylation in cells expressing pro-TEVcs-BDNF, unica-secTEV and TrkB-mGFP. The conditions noted are these: chemogenetic activation of unica-secTEV; co-expressed TrkB-mGFP. Type of series: cell-based. An excerpt:
In order to evaluate if mature BDNF obtained after activation of unica-secTEV was able to bind and activate its TrkB endogenous target receptor, pro-TEVcs-BDNF was expressed, unica-secTEV with TrkB-mGFP.

A further series deals with CA1 pyramidal neurons. The series is described as follows: Dendritic spines of CA1 pyramidal neurons in transfected organotypic hippocampal sections. Type of series: cell-based, rats. The following applies: unica-secTEV activated with rapamycin for 24 h. An excerpt: In order to test the biological activity of mature BDNF obtained with the chemogenetic strategy in neurons, BDNF was immunoprecipitated and purified by HEK293T cells co-transfected with unica-secTEV and treated with rapamycin. […] In fact, BDNF biochemical features, including the positive charges on its surface, prevent the spreading thereof and keep its action locally at level of synapses. This feature obstructs even the effectiveness of injections of purified BDNF as therapeutic strategy. Since the extracellular application could involve both sides, even the exogenous application of purified BDNF is not useful in sectioning the roles of pre- and postsynaptic release. […] These gene approaches involve the deletion both of proBDNF and BDNF, the contribution of each form to the observed effect cannot be distinguished. The chemogenetic strategy developed by the inventors to control the protein cleavage is useful even to evaluate the specific autocrine action of BDNF inducible intracellular maturation in CA1 pyramidal neurons. In order to monitor BDNF specific effects in the postsynaptic neurons, organo-typical sections containing the hippocampus of rats with unica-secTEV, pro-TEVcs-BDNF and dsRed2 were transfected ballistically to display in a fluorescent way CA1 pyramidal neurons. After 48 h, unica-secTEV with rapamycin was activated for 24 h.

Series [4] concerns hippocampal organotypic sections. Nature of the series: ERK phosphorylation in hippocampal organotypic sections treated with purified mature BDNF. Type of series: cell-based, rat. The conditions noted are these: hippocampal organotypic sections treated for 30 minutes, Western blot. As to the method: HEK293T cells were transfected (PEI MAX—Polysciences, Inc.) with the plasmids codifying for unica-secTEV (pcDNA-unica-secTEV-SV5) and pro-TEVcs-BDNF (HA-pro-TEVcs-BDNF-Flag-SEP) and left for 24 h at 37° C., 5% CO2.
After 24 h the cells were treated for 1-3 h with rapamycin (1 μM) or DMSO as control. The cells were washed with cold PBS and lysed with lysis buffer containing rapamycin (1 μM) or DMSO. The lysate was immunoprecipitated with FLAG-M2-beads for 1 h and subsequently FLAG peptide (sigma F3290-4 mg) was added. After 1 h the beads were removed by Micro bio-spin Colums®—Bio-Rad. The eluted protein was kept at −20° C. Once quantified by commercially available ELISA kits its biological effect was tested as described in FIG. 6.
In order to test the biological activity of mature BDNF obtained with the chemogenetic strategy in neurons, BDNF was immunoprecipitated and purified by HEK293T cells co-transfected with unica-secTEV and treated with rapamycin. […] In fact, BDNF biochemical features, including the positive charges on its surface, prevent the spreading thereof and keep its action locally at level of synapses. This feature obstructs even the effectiveness of injections of purified BDNF as therapeutic strategy. […]

In another series the test system is TMD-TEVcs-tTA. The series is described as follows: TMD-TEVcs-tTA / tetO-EGFP reporter expression in HEK293T cells. Type of series: cell-based. The conditions noted are these: control cells exposed to vehicle, absence of activator. An excerpt:
A system was used based upon the expression of a fluorophore after nuclear translocation of a transactivator sequestered on the plasmatic membrane by a TEV recognition site (TEVcs).
In particular, the inventors made to express in HEK293T cells a “tetracycline operator EGFP conjugated” (tetO-EGFP) and a synthetic protein consisting of a transactivator controlled by tetracycline (tTA), bound to a transmembrane domain (TMD) through a TEV recognition site (TEVcs) (TMD-TEVcs-tTA) (FIG. 7).

B1: unica-TEV (unimolecular chemical-activatable TEV) (protein)
chain: GESLFKGPRDYNPISSTICHLTNESDGHTTSLYGIGFGPFIITNKHLFRRNNGTLLVQSLHGVFKVKNTTTLQQHLIDGRDMIIIRMPKDFPPFPQKLKFREPQREERICLVTTNFQTKSGGSTCVVHYTGMLEDGKKFDSSRDRNKPFKFMLGKQEVIRGWEEGVAQMSVGQRAKLTISPDYAYGATGHGSGSGSGVKDLLQAWDLYYHVFRRISGPPGPGSGLWHEMWHEGLEEASRLYFGERNVKGMFEVLEPLHAMMERGPQTLKETSFNQAYGRDLMEAQEWCRKYMKSGSSGGSGSGIIPPHATLVFDVELLKLEGGSMSSMVSDTSCTFPSSDGTFWKHWIQTKDGQCGNPLVSTRDGFIVGIHSASNFTNTNNYFASVPKNFMELLTNQEAQQWVSGWRLNADSVLWGGHKVFMVKPEEPFQPVKEATQLMN
With B1, in series [1], the “in vitro protease test after immunoprecipitation of both proteins, with rapamycin, SDS-PAGE” value is reported as “SDS-PAGE migration of pro-peptide was noted”.

B2: unica-TEV: engineered single-chain TEV protease with uniRapR domain inserted between S120 and M121, rapamycin-activable; SEQ ID Nr. 5 (protein)
chain: B1 chain
modifications: Peptide sequence of unica-TEV engineered protease (1)..(440)
B2: the “cleavage of CFP-TEVcs-YFP (background activity)” value in the series on CFP-TEVcs-YFP (in absence of rapamycin) is recorded as “absence of cleavage background”. Further, the “cleavage of CFP-TEVcs-YFP” value in the series on CFP-TEVcs-YFP (in presence of rapamycin) was “identical cleavage profile”. Besides, the “cleavage of pro-TEVcs-BDNF in vitro” value in the series with pro-TEVcs-BDNF is given as “SDS-PAGE migration of pro-peptide was noted”. Also, the “kcat/Km ratio unica-TEV/wtTEV” value in series [2] is listed as 2.81. In series [3] (HEK293T, cytosolic localization of TEV protease), the “splitting of pro-TEVcs-BDNF in living cells by cytosolic protease” value was “nor unica-TEV in presence of rapamycin, nor an active mutating form of TEV, split pro-TEVcs-BDNF”.

B3: unica-secTEV: unica-TEV with N-terminal secretion signal and mutations for activity in the secretory pathway; SEQ ID Nr. 6 (protein)
chain: QGAQGESLFKGPRDYNPISSTICHLTQESDGHTTSLYGIGFGPFIITNKHLFRRNNGTLLVQSLHGVFKVKNTTTLQQHLIDGRDMIIIRMPKDFPPFPQKLKFREPQREERICLVTTNFQTKSGGSTCVVHYTGMLEDGKKFDSSRDRNKPFKFMLGKQEVIRGWEEGVAQMSVGQRAKLTISPDYAYGATGHGSGSGSGVKDLLQAWDLYYHVFRRISGPPGPGSGLWHEMWHEGLEEASRLYFGERNVKGMFEVLEPLHAMMERGPQTLKETSFNQAYGRDLMEAQEWCRKYMKSGSSGGSGSGIIPPHATLVFDVELLKLEGGSMSSMVSDTSSTFPSSDGTFWKHWIQTKDGQCGNPLVSTRDGFIVGIHSASNFGNTNNYFASVPKNFMELLTNQEAQQWVSGWRLNADSVLWGGHKVFMSKPEEPFQPVKEATQLMNEGGLE
modifications: left off: small tags and cut ends
Consider B3, for which the ERK phosphorylation result in the series with TrkB is listed as “clear increase in the kinase phosphorylation”. In the series on CA1 pyramidal neurons, the “morphology of dendritic spines” value is reported as “significant changes in the morphology of dendritic spines” and the “volume of heads of dendritic spines” value was “increase in the volume of heads of dendritic spines”. For the same molecule, the “density of dendritic spines” value in the series with CA1 pyramidal neurons (co-transfected pro-TEVcs-BDNF and dsRed2) is on record as “significant increase in the density of dendritic spines”. Further, the “cleavage of pro-TEVcs-BDNF (background activity)” value in [3] (in absence of rapamycin, secretory pathway) is “absence of cleavage background”. The “maturation (cleavage) of pro-TEVcs-BDNF in vital cells” value in series [3] (in presence of rapamycin, secretory pathway, Western blot) is 41-kDa band was noted designating BDNF maturation in the living cells and capability of unica-secTEV to make pro-TEVcs-BDNF to mature in vital cells.

B4: purified mature BDNF: mature BDNF immunoprecipitated and purified from HEK293T cells co-transfected with unica-secTEV and treated with rapamycin (protein, UniProt P23560 129-247, looked up)
Neurotrophic factor BDNF: HSDPARRGELSVCDSISEWVTAADKKTAVDMSGGTVTVLEKVPVSKGQLKQYFYETKCNPMGYTKEGCRGIDKRHWNSQCRTTQSYVRALTMDSKKRIGWRFIRIDTSCVCTLTIKRGR
modifications: Neurotrophic factor BDNF
notes: mature BDNF immunoprecipitated and purified from HEK293T cells co-transfected with unica-secTEV and treated with rapamycin
In the case of B4, the ERK phosphorylation result in series [4] is on record as “significant increase in ERK phosphorylation signals”; in series [4] (listed as mature BNDF), “induces a phosphorylation of ERK protein”.

B5: unica-TEV without linker: unica-TEV construct with no linker (NL) between TEV and UniRapR (protein)
chain: GESLFKGPRDYNPISSTICHLTNESDGHTTSLYGIGFGPFIITNKHLFRRNNGTLLVQSLHGVFKVKNTTTLQQHLIDGRDMIIIRMPKDFPPFPQKLKFREPQREERICLVTTNFQTKSTCVVHYTGMLEDGKKFDSSRDRNKPFKFMLGKQEVIRGWEEGVAQMSVGQRAKLTISPDYAYGATGHGSGSGSGVKDLLQAWDLYYHVFRRISGPPGPGSGLWHEMWHEGLEEASRLYFGERNVKGMFEVLEPLHAMMERGPQTLKETSFNQAYGRDLMEAQEWCRKYMKSGSSGGSGSGIIPPHATLVFDVELLKLEMSSMVSDTSCTFPSSDGIFWKHWIQTKDGQCGSPLVSTRDGFIVGIHSASNFTNTNNYFTSVPKNFMELLTNQEAQQWVSGWRLNADSVLWGGHKVFMVKPEEPFQPVKEATQLMN
As for B5, the “EGFP signal (background)” value is “substantially lower” with TMD-TEVcs-tTA and “almost wholly absent” in the series on TMD-TEVcs-tTA (listed as NL construct).
